# B1: Caldanaerobius polysaccharolyticus endo-β-mannanase Man5B (SEQ ID NO: 31) variant E137A (Caldanaerobius polysaccharolyticus; E137A) (protein)
# chain: MKKYGFNFQWMYVWEEGREPEPPDKKALDFLAETGFNFVRIPVDYRFWTRNFDYFNPDKKVFEYIDLYLRECSARNIHMCLNLHRAPGYCINRNDIERDNLWLDKRAQDGFVYQWELFAKRYKGVSSKFLSFDLVNAPPNIGQYGLTRENHASLIIRTVEAIRKIDPDREIVIDGLGGGNIAMPELAHLGVVHSGRGYQPMALTHYQASWWDGHKGLPEPYYPDLLWQGKVWNKDTLREYYKPWRDLQQKGVNVHIGEFGCFNKTSNDVAIRWFEDVLSLYKEFEWGYSLWNFKGPFGIVEHGRPGAKYEYYRGFKVDRELLDLLVENRV
# B2: Caldanaerobius polysaccharolyticus endo-β-mannanase Man5B (SEQ ID NO: 31) variant E258Q (Caldanaerobius polysaccharolyticus; E258Q) (protein)
# chain: MKKYGFNFQWMYVWEEGREPEPPDKKALDFLAETGFNFVRIPVDYRFWTRNFDYFNPDKKVFEYIDLYLRECSARNIHMCLNLHRAPGYCINRNDIERDNLWLDKRAQDGFVYQWELFAKRYKGVSSKFLSFDLVNEPPNIGQYGLTRENHASLIIRTVEAIRKIDPDREIVIDGLGGGNIAMPELAHLGVVHSGRGYQPMALTHYQASWWDGHKGLPEPYYPDLLWQGKVWNKDTLREYYKPWRDLQQKGVNVHIGQFGCFNKTSNDVAIRWFEDVLSLYKEFEWGYSLWNFKGPFGIVEHGRPGAKYEYYRGFKVDRELLDLLVENRV
# B3: Caldanaerobius polysaccharolyticus endo-β-mannanase Man5B (SEQ ID NO: 31) variant E258A (Caldanaerobius polysaccharolyticus; E258A) (protein)
# chain: MKKYGFNFQWMYVWEEGREPEPPDKKALDFLAETGFNFVRIPVDYRFWTRNFDYFNPDKKVFEYIDLYLRECSARNIHMCLNLHRAPGYCINRNDIERDNLWLDKRAQDGFVYQWELFAKRYKGVSSKFLSFDLVNEPPNIGQYGLTRENHASLIIRTVEAIRKIDPDREIVIDGLGGGNIAMPELAHLGVVHSGRGYQPMALTHYQASWWDGHKGLPEPYYPDLLWQGKVWNKDTLREYYKPWRDLQQKGVNVHIGAFGCFNKTSNDVAIRWFEDVLSLYKEFEWGYSLWNFKGPFGIVEHGRPGAKYEYYRGFKVDRELLDLLVENRV
# B4: Caldanaerobius polysaccharolyticus endo-β-mannanase Man5B (SEQ ID NO: 31) variant E137Q (Caldanaerobius polysaccharolyticus; E137Q) (protein)
# chain: MKKYGFNFQWMYVWEEGREPEPPDKKALDFLAETGFNFVRIPVDYRFWTRNFDYFNPDKKVFEYIDLYLRECSARNIHMCLNLHRAPGYCINRNDIERDNLWLDKRAQDGFVYQWELFAKRYKGVSSKFLSFDLVNQPPNIGQYGLTRENHASLIIRTVEAIRKIDPDREIVIDGLGGGNIAMPELAHLGVVHSGRGYQPMALTHYQASWWDGHKGLPEPYYPDLLWQGKVWNKDTLREYYKPWRDLQQKGVNVHIGEFGCFNKTSNDVAIRWFEDVLSLYKEFEWGYSLWNFKGPFGIVEHGRPGAKYEYYRGFKVDRELLDLLVENRV
# What was measured:
# Assay type in all cases: biochemical, Caldanaerobius polysaccharolyticus
# [1] = substrate: O=[N+]([O-])c1ccc(O[C@@H]2O[C@H](CO)[C@@H](O[C@@H]3O[C@H](CO)[C@@H](O)[C@H](O)[C@H]3O)[C@H](O)[C@H]2O)cc1; assay: Kinetic properties with pNP-linked sugars (Man5B E137A); conditions: other: Man5B E137A 2 μM, at 10 mM substrate, 65° C., pH 5.5
# Procedure: (§1) Determination of kinetic properties for wild type and mutant Man5B with pNP-linked sugars. Kinetic properties of wild type and mutant Man5B were determined for pNP-β-D-mannopyranoside and pNP-β-D-cellobioside. The substrate concentrations ranged from 0.06 to 10 mM and reactions were performed at 65° C. in citrate buffer (50 mM sodium citrate, pH 5.5). The reactions were equilibrated to 65° C. using a thermostated Cary 300 UV-Vis spectrophotometer, and the reactions were initiated by the addition of wild type (5 nM, final concentration) or mutant (2 μM, final concentration) Man5B. The rate of pNP release was determined by continuously monitoring the absorbance at 400 nm. Initial rate data were then plotted against the substrate concentrations, and the values of the Michaelis-Menten constant (KM) and the maximum velocity (Vmax) were estimated from a nonlinear curve fit using GraphPad Prism v5.01 from GraphPad Software (San Diego, Calif.). The kcat was calculated as the quotient of the Vmax and the concentration of enzyme used in the reaction.
# (§2) Site-directed mutagenesis. Mutagenesis was carried out using PCR-based […] […]
# (§3) Next, to test whether the mutations introduced in Man5B had any effects on the catalytic activity of this enzyme, the catalytic parameters for the wild type and mutant enzymes were determined using pNP-β-D-cellobioside and pNP-β-D-mannopyranoside as substrates.
# [2] = substrate: O=[N+]([O-])c1ccc(O[C@@H]2O[C@H](CO)[C@@H](O)[C@H](O)[C@@H]2O)cc1; assay: as above; conditions: other: Man5B E137A 2 μM, at 10 mM substrate, 65° C., pH 5.5
# Procedure: as §1, §2, §3
# [3] = substrate: O=[N+]([O-])c1ccc(O[C@@H]2O[C@H](CO)[C@@H](O[C@@H]3O[C@H](CO)[C@@H](O)[C@H](O)[C@H]3O)[C@H](O)[C@H]2O)cc1; assay: Kinetic properties with pNP-linked sugars (Man5B E258Q); conditions: other: Man5B E258Q 2 μM, at 10 mM substrate, 65° C., pH 5.5
# Procedure: as §1, §2, §3
# [4] = substrate: O=[N+]([O-])c1ccc(O[C@@H]2O[C@H](CO)[C@@H](O)[C@H](O)[C@@H]2O)cc1; assay: as above; conditions: other: Man5B E258Q 2 μM, at 10 mM substrate, 65° C., pH 5.5
# Procedure: as §1, §2, §3
# [5] = substrate: O=[N+]([O-])c1ccc(O[C@@H]2O[C@H](CO)[C@@H](O[C@@H]3O[C@H](CO)[C@@H](O)[C@H](O)[C@H]3O)[C@H](O)[C@H]2O)cc1; assay: Kinetic properties with pNP-linked sugars (Man5B E258A); conditions: other: Man5B E258A 2 μM, at 10 mM substrate, 65° C., pH 5.5
# Procedure: as §1, §2, §3
# [6] = substrate: O=[N+]([O-])c1ccc(O[C@@H]2O[C@H](CO)[C@@H](O)[C@H](O)[C@@H]2O)cc1; assay: as above; conditions: other: Man5B E258A 2 μM, at 10 mM substrate, 65° C., pH 5.5
# Procedure: as §1, §2, §3
# [7] = substrate: O=[N+]([O-])c1ccc(O[C@@H]2O[C@H](CO)[C@@H](O[C@@H]3O[C@H](CO)[C@@H](O)[C@H](O)[C@H]3O)[C@H](O)[C@H]2O)cc1; assay: Kinetic properties with pNP-linked sugars (Man5B E137Q); conditions: other: Man5B E137Q 2 μM, 65° C., citrate buffer pH 5.5
# Procedure: as §1
# (§4) Site-directed mutagenesis. Mutagenesis was carried out using PCR-based […] XL site-directed mutagenesis kit from Stratagene (La Jolla, Calif.) according to the manufacturer's instructions. Mutagenic primers with the desired mutation were designed using the […]® Primer Design Program (Stratagene website) and are listed in Table 1-2). The DNA templates for the PCR amplifications were the pET28a-Man5A-TM1 plasmid and the pET46-Man5B plasmid for generation of the Man5A-TM1 and Man5B mutants, respectively. Following 18 cycles of PCR using Pfu Turbo, the PCR mixture was digested with DpnI at 37° C. for 12 h to remove the parental DNA, and the resulting DNA was transformed into competent E. coli JM109 cells through electroporation. The DNA was sequenced to confirm that there were no PCR-derived nucleotide changes except those introduced by the PCR primers. The mutated genes were then expressed to produce the mutant recombinant proteins. The expression and purification methods were as described above for wild-type Man5A-TM1 and Man5B.
# as §3
# [8] = substrate: O=[N+]([O-])c1ccc(O[C@@H]2O[C@H](CO)[C@@H](O)[C@H](O)[C@@H]2O)cc1; assay: as above; conditions: other: Man5B E137Q 2 μM, at 10 mM substrate, 65° C., pH 5.5
# Procedure: as §1, §4, §3
protein,measurement,setting,value
B1,kcat,[1],0.011 ± 0.004 s⁻¹
same,kcat,[2],0.019 ± 0.001 s⁻¹
B2,kcat,[3],0.012 ± 0.004 s⁻¹
same,kcat,[4],0.012 ± 0.002 s⁻¹
B3,kcat,[5],0.011 ± 0.001 s⁻¹
same,kcat,[6],0.018 ± 0.003 s⁻¹
B4,Km,[7],(2.9 ± 0.9) × 10^−1 mM
same,kcat,[7],0.047 ± 0.01 s⁻¹
same,kcat/Km,[7],160 ± 60 M⁻¹ s⁻¹
same,kcat,[8],0.018 ± 0.006 s⁻¹
